Experimental data published in patent US12723078 (University of Texas, dated 2026).

Molecular target: T1, human LILRB1 recombinant protein (human, UniProt Q8NHL6 24-461)
T1 construct: The ELISA method says only 'LILRB1 recombinant proteins' coated on plates; also called leukocyte immunoglobulin-like receptor subfamily B member 1
Assay: ELISA, B cell supernatant

T1 sequence (Q8NHL6 24-461 limits assumed): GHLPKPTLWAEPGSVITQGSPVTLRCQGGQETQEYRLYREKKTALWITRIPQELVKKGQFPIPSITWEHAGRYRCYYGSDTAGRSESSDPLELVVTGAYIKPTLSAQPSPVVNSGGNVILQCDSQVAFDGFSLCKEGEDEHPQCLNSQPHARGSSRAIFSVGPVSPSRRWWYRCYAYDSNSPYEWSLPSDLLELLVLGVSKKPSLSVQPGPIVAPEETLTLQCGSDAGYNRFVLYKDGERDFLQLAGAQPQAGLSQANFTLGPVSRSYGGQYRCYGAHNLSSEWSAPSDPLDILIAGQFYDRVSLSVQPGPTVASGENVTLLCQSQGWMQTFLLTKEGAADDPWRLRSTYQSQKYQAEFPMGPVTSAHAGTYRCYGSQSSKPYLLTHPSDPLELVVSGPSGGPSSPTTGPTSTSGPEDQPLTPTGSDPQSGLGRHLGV

Row | Binder | OD450
1 | mAb of B cell clone 27 (supernatant) (antibody, V domains shown, rabbit; also called B1-#27) VH: EQSVKESGGGLVQPEGSLTLTCTVSGFSFSGSYWICWVRQAPGKGLEWIACIYGDSIATYYPNWAKGRFTISKTSSTTVTLQMASLTGADTATYFCARDRNGGSGAYGWDLWGPGTLVTISS VL: ELDLTQTPASVSEPVGGTVTITCQASQSISSYLSWYQQTPGQPPKLLIYKASTLASGVPSRFKGSGSGTEFTLTISDLECADAATYYCQSYYYISATVDNTFGGGTEVEIK | 2.56 OD450
2 | mAb of B cell clone 221 (supernatant) (antibody, V domains shown, rabbit) VH: QSLEESGGDLVKPGASLTLTCTASGFSFSSSYYMCWVRQAPGKGLEWIACIYGGSTGTTYYASWAKGRFTISKTSSTTVTLQMTSLTGADTATYFCARSYNSASSGYYWDLWGPGTLVTVSS VL: ELDLTQTPSSVEAAVGGTVTIKCQASQSIGSNLAWYQQKPGQPPKVLIYKASTLASGVPSRFKGSGSGTQFTLTISDLECADAATYYCQNNNYWSNGNHFGGGTEVVVK | 1.64 OD450
3 | mAb of B cell clone 210 (supernatant) (antibody, V domains shown, rabbit; also called B1-#210) VH: QSVEESEGRLVTPGGSLTLTCTVSGIDLSSYAMGWVRQAPGKGLEWIGVIGKSGTTYYANWAKGRFTISKTSTTVDLQIASPTTEDTATYFCARAGASRSIYYDLWGQGTLVTISS VL: ELVLTQTPSSKSVAVGDTVTINCQASESVYGNNRCSWYQQKPGQPPKLLIYQASTLASGVPSRFSGSGSGTQFTLTISDVVCDDAATYYCAGHKGTTNDGNDFGGGTEVEIK | 1.75 OD450
4 | mAb of B cell clone 226 (supernatant) (antibody, V domains shown, rabbit) VH: QEQLVESGGGLVQPEGSLTLTCTASGFSFSSRQYISWVRRAPGKGLEWIGAIVTVNNKVHYANWAKGRFTISEASSTTVTLQMTSLTAADTATYFCARWRTFGLWGPGTLVTVSS VL: ELVLTQTPSSKSVAVGDTVTINCQASENVYSNNYTSWFQQKPGQPPKQLLYYAAYRASGVPSRFKGSGSGTEFTLSISDVVCDDAATYYCSGHKDYSDDGSTFGGGTEVVVK | 2.38 OD450
5 | mAb of B cell clone 25 (supernatant) (antibody, V domains shown, rabbit; also called B1-#25) VH: EQSVKESGGGLVQPEGSLTLTCKVSGIDFNYYNYYYMCWVRQAPGKGLEWIGCMSTASANIYLASWAKGRFTISEASSTTVTLQMTSLTAADTATYFCAKSHGGDGGYGVVLWGPGTLVTISS VL: ELDLTQTPFSVSAAVGGTVTIKCQASETISNRLAWYQQKPGQPPKLLIYSASTLESGVPSRFKGSGSGTEFTLTISDLECADAATYYCQSIRSSSGIVHPNTFGGGTEVEIK | 2.3 OD450
6 | mAb of B cell clone 10 (supernatant) (antibody, V domains shown, rabbit; also called B1-#10) VH: EQSVEESGGGLVKPEGSLTLTCKASGLDFSSSYWICWVRQAPGKGLEWIACIDTGSSGSTYYASWAKGRFTVSKTSSTTVSLQMTSLTAADTATYFCASTPNSLGYDLWGPGTLVTISS VL: ELDLTQTPASVSAAVGGTVTIKCQASQNIVSNLAWYQQKPGQRPKLLIYYASTLASGVPSRFKGSGSGTEYTLTISDLECADAATYYCQNNAGIYGNYGHGFGGGTELEIK | 2.17 OD450
7 | mAb of B cell clone 5 (supernatant) (antibody, V domains shown, rabbit; also called B1-#5) VH: EQSLEESGGDLVKPEGSLTLTCTASELSFSSAYYMCWVRQAPGKGLEWIGCIYSGDGDTYYANWAKGRFTISKTSSTTVTLQMTSLTDADTATYFCARALDSHYSSFDLWGPGTLVTISS VL: ELDMTQTPSSVSAAVGDTVTIKCQASQSIYRYLAWYQQKPGQRPSLLIYYGSDLASGVPSRFSGSGSGTEFTLTISDLECADAASYYCQTTYDDYHNGWAFGGGTNVEIN | 2.27 OD450
8 | mAb of B cell clone 19 (supernatant) (antibody, V domains shown, rabbit; also called B1-#19) VH: EQSVEESGGGLVKPEGSLTLTCKASGLDFSSSYWSCWVRQTPGRGLEWIGCIDVGSSGGSYYASWARGRFTVSKGSSTTVTLQMTSLTAADTATYFCASTTTNVFGYDLWGPGTLVTVSS VL: ELDLTQTPASVSEPVGGTVTIKCQASQNIYNNLAWYQQKPGQPPKLLIYYASTLASGVPPRFSGSGSGTEYTLTISDLECDDAATYYCQNNAGIYGGYGHGFGGGTEVVVK | 2.32 OD450
9 | mAb of B cell clone 220 (supernatant) (antibody, V domains shown, rabbit; also called B1-#220) VH: QSVEESGGGLVQPEGSLTLTCTASGFSFSGIVYMCWVRQAPGKGLEWIACAFVGSGGSTYYATWATGRFTISKTSSTTVTLQMTSLTAADTATYFCAKSYNYNGLGLWGPGTLVTVSS VL: ELDMTQTPASVSAAVGGTVTIKCQASQSITNALAWYQQKPGQPPKLLIYRASTLASGVSSRFKGSGSGTEFTLTISDLECADAATYYCQCSYYGSTYFGSPFGGGTEVEIK | 2.24 OD450
10 | mAb of B cell clone 18 (supernatant) (antibody, V domains shown, rabbit; also called B1-#18) VH: EQSVKESGGGLVKPGGTLTLTCIVSGFSLSRYAVTWVRQAPGKGPEWIGYIDTSSGNKDYANWVNGRFTISKTSSTTVTLQMTSLTAADTATYFCARGFSMFKLWGPGTLVTISS VL: ELVMTQTPSSVSAAVGGTVTISCQASQSVYNNNNLAWYQQKPGQPPKRLIYSASTLDSGVPSRFSGSGSGTQFTLTISDLECDDAATYYCAGGYTYNINIFGGGTEVEIK | 2.41 OD450
11 | mAb of B cell clone 203 (supernatant) (antibody, V domains shown, rabbit) VH: QSLKESEGDLVKPGASLTLTCTASGFSFSSSYWICWVRQAPGKGLEWIACIYAGSSGSTYYASWAKGRFTISKTSSTTVTLEMTSLTDADTATYFCARGFSMFKLWGPGTLVTISS VL: ELVLTQTPSSVEAAVGGTVTIKCQASQSIGSYLAWYQQKPGQPPKLLIYKASTLSSGVSSRYKGSGSGTEFTLTISDLECDDAATYYCQYTSYSSGGAFGGGTEVVVK | 1.75 OD450
12 | mAb of B cell clone 22 (supernatant) (antibody, V domains shown, rabbit; also called B1-#22) VH: EQSLEESGGGLVKPGASLTLTCKASGFDFSSNDYMCWVRQAPGKGLEWIGCIYGGDGHTYYATWAKGRFTISKASSTTVTLQMTSLTAADTASYFCARGYSYGDTGYADAILTLDLWGPGTLVTVSS VL: ELDLTQTPASVEAAVGGTVTIKCQASQTIGSYLSWYQQKPGQRPKLLIYEASKLASGVPSWFKGSGSGTEFTLTISDLECADAATYYCQSNYYRAGGNYGGAFGGGTEVEIK | 1.84 OD450

The remaining lines, values ahead:

Row | OD450 | Binder
13 | 2.09 OD450 | mAb of B cell clone 224 (supernatant) (antibody, V domains shown, rabbit) VH: EQSVEESGGGLVQPEGSLTLTCTASGIDFSSGAWICWVRQAPGKGLELIACIFTTSGFTYYASWAKGRFTISKTSSTTVTLQMTSLTAADTATYFCARDIYSYGMDLWGPGTLVTISS VL: ELVLTQTPSSVSEPVGGTVTIKCQASQSISSSYLAWYQQKPGQPPKFLIYSASTLASGVPSRFKGSGSGTEFTLTISDLECADAATYYCQSTYISSSNYGAAFGGGTEVEIK
14 | 2.32 OD450 | mAb of B cell clone 38 (supernatant) (antibody, V domains shown, rabbit; also called B1-#38) VH: EQSVEESEGGLVQPEGSLTLTCTASGFSFSNDYWICWVRQAPGKGLEWIGCGHIGSFRTTYYASWAKGRFSISKTSSTTVTLQMTSLTGADTATYFCARSPYDDGYGGFTFNLWGPGTLVTISS VL: ELDMTQTPSSVEAAVGGTVTVKCQVSQSIGNAIAWYQQKPGQPPKLLIYKASTLASGVPSRFKGSGSGTEFTLTISDLECADAATYYCQNYYYSNTNSFGGGTEVVVK
15 | 1.9 OD450 | mAb of B cell clone 190 (supernatant) (antibody, V domains shown, rabbit; also called B1-#190) VH: QEQLKESGGDLVKPEGSLTLTCTASGFSFSSDYWVCWVRQAPGKGPEWIGCIYTGDDDTYYASWAKGRFTISKTSSTTVTLEVTSLTAADTATYFCARGLTIGTAELYFWGPGTVVTVSS VL: ELVLTQTPSPVSAAVGGTVTINCQASQSISNELSWYQQKPGQPPKLLIYLASTLDSGVPSRFKGSGSGTQFTLTISDLECADAATYYCQSHYYGGSSDYGWAFGGGTEVVVK
16 | 2.18 OD450 | mAb of B cell clone 209 (supernatant) (antibody, V domains shown, rabbit) VH: SQSVEESGGDLVKPGGTLTLTCTASRIDLNNYYYISWVRQAPGKGLEWIGVVATDSSVTWYASWAKGQFTISKTSSTTVTLQMTSLTAADTATYFCARGSGAATNGVWWVMGDGMDLWGPGTLVTVSS VL: ELVMTQTPASVSEPVGGTVTIKCQASQSISSYLSWYQQKPGQPPKRLIYKASTLASGVPSRFKGSGSGTEFTLTISGVQCADAATYYCQNNYHSGSSNGGGFAFGGGTEVEIK
17 | 2.28 OD450 | mAb of B cell clone 198 (supernatant) (antibody, V domains shown, rabbit) VH: QSLEESGGGLVKPEGSLTLTCTASGFDLSNNYYICWVRQAPGKGLELIACVDSDLTDSADYASWAKGRFTISKTSSTTVTLQMTSLTAADTATYFCAGSGSGYYYYYGMDLWGPGTLVTISS VL: ELDMTQTPASVSEPVGGTVTIKCQASQSIGSYLAWYQQKPGQPPKLLAFYASTLKSGVPPRFKGSGSGTEFTLTISDLECADAATYYCQSNRLSSSDVNAFGGGTEVEIK
18 | 2.4 OD450 | mAb of B cell clone 7 (supernatant) (antibody, V domains shown, rabbit; also called B1-#7) VH: EQSLEESGGGLVKPGASLTVTCAVSGFSLNSYAITWVRQAPGKGLEYIGYIDTGASITDYASWAKGRFTISKTSSTTVTLEMTSLTDADTATYFCARGFSMFKLWGPGTLVTISS VL: ELDLTQTPSSVSAAVGGTVTISCQASQSVYGNNRLAWYHQKPGQPPKRLIYLASTLDSGVPSRFKGAGSGTQFTLTISDLECDDAATYYCAGGYAGNFNAFGGGTEVEIK
19 | 2.5 OD450 | mAb of B cell clone 15 (supernatant) (antibody, V domains shown, rabbit; also called B1-#15) VH: EQSVEESGGDLVKPGASLTLTCTASGFSSSSSAYMCWVRQAPGKGLEWIACIFIGSGSDSYYATWAKGRFTISKTSSTTVTLQMTSLTAADTATYFCARNTYDWNGYIYGPCYFGLWGPGTLVTISS VL: ELDLTQTPSSVEAAVGGTVTIKCQASQSIYNYLAWYQQKPGHSPKLLIYDVSKLASGVSSRFKGSGSGTEFTLTISDLECADAATYYCQSYYGNTVSFTFGGGTEVEIK
20 | 2.27 OD450 | mAb of B cell clone 28 (supernatant) (antibody, V domains shown, rabbit; also called B1-#28) VH: EQSLEESGGGLVKPGASLTLTCKASGFSFSSDYDMCWVRQAPGKGLEWIGCIVTGFSGRIYYATWARGRFTFSRTSSTTLTLQMTSLTAADTATYFCARDSGNYNWDLWGPGTLVTISS VL: ELDLTQTPTSVSAAVGGTVTIKCQASQSISDYLSWYQQKPGQPPKLLIYRASTLASGVPSRFKGSGSGTEFTLTISDLECADAATYYCQSNYYGSQGCTFGGGTEVEIK
21 | 1.95 OD450 | mAb of B cell clone 202 (supernatant) (antibody, V domains shown, rabbit) VH: SQSLEESGGGLVKPGASLTLTCKGSGFSFNGDYYMCWVRQTPGKGLEWIGCIYAAGDDTYYATWAKGRFTISKTSSTTVTLQMTSLTAADTATYFCARDQADSYAFGLWGPGTLVTISS VL: ELVLTQTASPVSGAVGGTVTIKCQASQNIYSNLAWYQQKPGQPPKLLIYSASKLASGVPSRFKGSGSGTEYTLTISGVQCEDAATYYCQSYYYTASADTTFGGGTEVEIK
22 | 2.27 OD450 | mAb of B cell clone 196 (supernatant) (antibody, V domains shown, rabbit) VH: QEQLVESGGGLVQPEGSLTLTCTDSGFSFTKNYYMCWVRQAPGKGLEWIGCIYAGSTNTFYASWAKGRFTISKASSTTVDLKMTSLTVADTATYFCARDFVSYLNLWGPGTLVTVSS VL: ELDMTQTPSSTSAAVGGTVTIKCQASQSVYNNNQLSWFQQKPGQPPKRLIYGASTLESGVPSRFSGSGSGTQFTLTISDLECDDAATYYCQGAVSSDYYPFGGGTEVEIK
